Data reported in publication PMC12269619, “In silico improvement of affinity for highly protective anti-malarial antibodies” (iScience, 2025).
Ends that are not written are not given here.

Molecular target: T1, Biotinylated junctional peptide Pep21 (PfCSP peptide 21) (Plasmodium falciparum 3D7, UniProt Q7K740, also: biotinylated, position not given here)
T1 construct: Plasmodium falciparum circumsporozoite protein (PfCSP), junctional region, residues 101-115; source: synthetic peptide, bought: Genscript
T1 chain: NPDPNANPNVDPNAN
Test: BLI; Octet Red384, biotinylated Pep21 on streptavidin biosensors, Fab serially diluted from 1000 to 62.5 nM, 30°C, PBS + 1% BSA, association 60 s, dissociation 180 s, global fit 1:1 Langmuir
Conditions: both partners purified

B1: P3-43 Fab (m43.151 P100K_H) (Fab, V domains shown)
VH: QVHLVQSGAEVKKPGASVKVSCKASGYTFTSYAIHWVRQAPGQRLEWMGWIKGGNGNTRYSQKFQDRVTITRDTSASTAYMELSSLRSEDTAVYYCALLTVITKDDAFDIWGQGTMVTVSS
VL: not shown
notes: as the heavy chain of m5 (PDB 7LKG) with the stated change; own structure deposited here; as the light chain of m5; source: Fab produced from the antibody
- Kd: 8.9 nM
